The data set is described as follows: protein stability index of a GFP-peptide fusion (GPS, HEK-293T) (PSI 1-6); higher = more stable. Conditions: c terminus: a fixed tail appended.

Data on 36 sequences can be found in the supplement of paper PMC10567573.

± gives the standard deviation.
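Further: 24-mer peptide tiles fused after GFP, lentivirally expressed, FACS-sorted into six equal bins by GFP/DsRed ratio, decoded by Illumina sequencing, PSI is the read-weighted mean bin number.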

In the case of LRFLHENQLTHTDLKPENILFVNS [CLK3], the protein stability index is, setting by setting: (treatment: DMSO) 2.49 ± 0.23; (treatment: MLN4924 1 uM, 8 h) 2.86 ± 0.36.
On the same counts, the results for LRFLYSDEVQIGPETVMTTLYTAK [BTBD1] are 2.48 ± 0.38 and 1.99 ± 0.24.
Turning to LRREPSERLTAPEILLHPWFESVL [TRIB1], the protein stability index is, setting by setting: (treatment: DMSO) 2.51 ± 0.25; (treatment: MLN4924 1 uM, 8 h) 2.74 ± 0.52.
On the same counts, the results for LRRKEQLWEKLAKQGELPREVRRA [NOP53] are 3.58 ± 0.18 and 3.7 ± 0.36.
In the same order, the values of LRVGIPENAPIGTLLLRLNATDPD [PCDHGC5] are 2.92 ± 0.18 and 3.22 ± 0.32.
In the case of LSGASPFLGETKQETLTNISAVNY [DAPK3], the protein stability index was 3.73 ± 0.2 (treatment: DMSO) and 3.85 ± 0.25 (treatment: MLN4924 1 uM, 8 h).
As to LSKASEPKYQLFVPQLVTGRCATR [RNF180], the protein stability index came to 2.88 ± 0.4 (treatment: DMSO) and 2.94 ± 0.2 (treatment: MLN4924 1 uM, 8 h).
Take LSPTQRQKNFELAFTMAENLANCE [SMTNL2]: the protein stability index (treatment: DMSO) stood at 3.39 ± 0.19 and the protein stability index (treatment: MLN4924 1 uM, 8 h) stood at 3.67 ± 0.52.
In the same order, the values of LSRRQLCPLTPGPGKALGPAATMA [C2CD2L] are 2.93 ± 0.37 and 3.13 ± 0.38.
On the same counts, the results for LSSSCCHTVPDFHLSSPAKNFFKK [PLK2] are 2.99 ± 0.18 and 3.25 ± 0.31.
On the same counts, the results for LTCNNYKNKMMVCQVGGIEALVRT [CTNNB1] are 2.32 ± 0.38 and 2.23 ± 0.56.
LTCVICLNYLVDPVTICCGHSFCR [TRIM43] came in with a protein stability index (treatment: DMSO) of 2.83 ± 0.82 and a protein stability index (treatment: MLN4924 1 uM, 8 h) of 2.91 ± 0.97.
In the same order, the values of LTLKVCKPQAPQKLDPTLSSCFFI are 2.37 ± 0.59 and 2.3 ± 0.3.
In the same order, the values of LTSQNIEIKLVSDVTADSKVLEAL [PLD5] are 3.13 ± 0.31 and 3.18 ± 0.43.
In the same order, the values of LVCTFSSQVCRVAYEIMQTLHPDA [FUT8] are 2.95 ± 0.12 and 3.22 ± 0.55.
Turning to LVFPSSSSSSSSQAPGQPPGNQAE [ZBTB22], the protein stability index (treatment: DMSO) stood at 5.06 ± 0.2 and the protein stability index (treatment: MLN4924 1 uM, 8 h) amounted to 4.71 ± 0.067.
With LVLKVLWNDFLMCYSSRPLLCWSV [SLC19A2], the protein stability index came to 3.19 ± 0.48 (treatment: DMSO) and 3.45 ± 0.53 (treatment: MLN4924 1 uM, 8 h).
On the same counts, the results for LVLVVNTLRRIQASMAPAAALPPV [SERTAD1] are 2.35 ± 0.099 and 2.33 ± 0.2.
In the same order, the values of LVQTTDFFYPLVEDPYMMGRIACA [SEPHS2] are 2.34 ± 0.47 and 2.23 ± 0.29.
With LVVASGVIYCLGGYDGLNILNSVE [KLHL12], the protein stability index is 3.28 ± 0.25 (treatment: DMSO) and 3.03 ± 0.16 (treatment: MLN4924 1 uM, 8 h).
In the case of LVWRNSIRSSFISSLSFFLKKMGK [FBXO39], the protein stability index is, setting by setting: (treatment: DMSO) 2.65 ± 0.65; (treatment: MLN4924 1 uM, 8 h) 2.9 ± 0.46.
On the same counts, the results for LWDTSGQGRFCTIFRSYSRGAQGV [RAB40A] are 2.24 ± 0.41 and 2.51 ± 0.36.
Take LWSDPMAQEGCKANTIRGGGCYFG [PPEF2]: the protein stability index was found to be 2.68 ± 0.73 (treatment: DMSO) and 2.5 ± 0.44 (treatment: MLN4924 1 uM, 8 h).
In the same order, the values of LYLFGGHHSRGNTNKFYMLDSRST [KLHDC2] are 2.16 ± 0.12 and 2.17 ± 0.18.
Take LYPNPRERSSFYSCAGGRLFQQSC [CHIT1]: the protein stability index came to 1.94 ± 0.21 (treatment: DMSO) and 2.37 ± 0.43 (treatment: MLN4924 1 uM, 8 h).
On the same counts, the results for MAAGQNGHEEWVGSAYLFVESSLD [TRADD] are 2.05 ± 0.26 and 2.65 ± 0.37.
MAAGSTTLHAVEKLQVRLATKTEP [ELOA2]: the protein stability index (treatment: DMSO) stood at 3.62 ± 0.23 and the protein stability index (treatment: MLN4924 1 uM, 8 h) turned out to be 3.61 ± 0.36.
In the same order, the values of MALKTSLGSVQFMEQFCWPHLRSF are 3.01 ± 0.86 and 2.69 ± 0.73.
In the same order, the values of MATATPVPPRMGSRAGGPTTPLSP [LMNB1] are 4.21 ± 0.17 and 4.24 ± 0.29.
As for MDYKSSLIQDGNPMENLEKQLICP [TRIM63], the protein stability index reads like this: (treatment: DMSO) 4.06 ± 0.29; (treatment: MLN4924 1 uM, 8 h) 4.14 ± 0.16.
On the same counts, the results for MEDEMPKTLYVGNLSRDVTEALIL [TIA1] are 2.41 ± 0.36 and 2.63 ± 0.28.
In the same order, the values of MEIMEAYSVARQFNLTPPICEQAE [KCNAB2] are 3.72 ± 0.18 and 3.65 ± 0.33.
In the same order, the values of MEKATVPVAAATAAEGEGSPPAVA [ANKRD17] are 5.67 ± 0.24 and 5.65 ± 0.11.
For the sequence MFRSKRSGLVRRLWRSRVVPDREE [SMAD6], the protein stability index stood at 2.67 ± 0.17 (treatment: DMSO) and 3.24 ± 0.5 (treatment: MLN4924 1 uM, 8 h).
On the same counts, the results for MGTSHGITRPSPRRSNSPDKFKRP [CCDC6] are 4.71 ± 0.087 and 4.89 ± 0.11.
On the same counts, the results for MHGNEALGRELMLQLSEFLCEEFR [CPN1] are 2.24 ± 0.49 and 2.67 ± 0.22.
